{"source": "patent US20260258115A1", "about": "(MAPP BIOPHARMACEUTICAL, published 2026)", "binders": {"B1": {"name": "ADI-19432 (antibody, V domains shown)", "VH": "QVQLVQSGAEVKKPGASVKVSCKVSGYTLTELSMHWVRQAPGKGLEWMGGFDPEDGETIYAQKFQGRVTMTEDTSTDTAYMELSSLRSEDTAVYYCATEREEGGYSGYDDAFDIWGQGTMVTVSS", "VL": "not shown", "notes": "full-length IgG"}, "B2": {"name": "ADI-14349 (antibody, V domains shown)", "VH": "EVQLVESGAEVKKPGSSVKVSCKASGGTLSSYAFSWVRQAPGQGLEWMGGVIPISATSDYAQKFQGRVTITADESTSTVYMELRSLRSEDTAVYYCARDTRYSSGWFYDYWGQGTLVTVSS", "VL": "not shown", "notes": "full-length IgG; also called Ab 17"}, "B3": {"name": "ADI-14378 (antibody, V domains shown)", "VH": "QVQLVESGGGLVQPGGSLRLSCAASGFTFSSYWMHWVRQAPGKGLVWVSRINSDGSSPTYADSVKGRFTISRDNAKNTVFLQMNSLRAEDTAVYYCARESWELIRGDAFDIWGQGTTVTVSS", "VL": "DIQMTQSPSSLSASVGDRVTITCRASQSISSSLNWYQQKPGKAPNLLIYAASTLQSGVPSRFSGSGSGTDFTLTISSLQPEDFATYYCQQSYRTPRTFGQGTKVEIK", "notes": "full-length IgG; also called Ab 46"}, "B4": {"name": "ADI-14377 (antibody, V domains shown)", "VH": "EVQLVESGGGVVQPGGSLRLSCAVSGITFSSYGMHWVRQAPGKGLEWVAFIRYDGSNKYYGDSLRGRFTISRDNSKNTLYLQMNSLRAEDTAVYYCAKDAVGIGGYYGLDVWGQGTTVTVSS", "VL": "DIQMTQSPSSLSASVGDRVTITCRASQGIRNDLGWYQQKPGKAPKRLIYAASSLQSGVPSRFSGSGSGTEFTLTISSLQPEDFATYYCLQHNGYPWTFGQGTKVEIK", "notes": "full-length IgG; also called Ab 45"}, "B5": {"name": "ADI-14388 (antibody, V domains shown)", "VH": "EVQLVESGGGVVQPGRSLRLSCAASGFTFSSYPMHWVRQAPGKGLEWVAVISYDGSNKYYADSVKGRFTISRDNSKNTLYLQMNSLRAEDTAVYSCARAQSAAIFDHWGQGTLVTVSS", "VL": "QAVVTQEPSLTVSPGGTVTLTCASSTGAVTSGYYPNWFQQKPGQAPRALIYTTSKRHSWTPARFSGSLLGGKAALTLSGVQPEDEADYYCLLYYGGANWVFGGGTKLTVL", "notes": "full-length IgG; also called Ab 55"}, "B6": {"name": "ADI-14391 (antibody, V domains shown)", "VH": "QVQLVESGGGLVQPGGSLRLSCAAAGFSFSNYAMSWVRQAPGKGLEWVAVISGNAGSTYYAESVKGRFTISRDNSKNTLHLQMNSLRGEDTAVYYCAKPPGIAVAGEYYWYFDLWGRGTLVTVSS", "VL": "QVQLMQPPSVSVSPGQTARITCSGDALPRENAYWYQQKSGQAPVLVIYEDSKRPSGIPERFSGSSSGTMATLTITGAQVEDEADYYCYSTDTSAYHWVFGGGTKLTVL", "notes": "full-length IgG; also called Ab 58"}, "B7": {"name": "ADI-19488 (antibody, V domains shown)", "VH": "QVQLVQSGAEVKKPGASVKVSCKVSGYTLTELSMHWVRQAPGKGLEWMGGFDPEDGETIYAQKFQGRVTMTEDTSTDTAYMELSSLRSEDTAVYYCATARFLEWLSGTNWFDPWGQGTLVTVSS", "VL": "not shown", "notes": "full-length IgG; also called Ab 190"}, "B8": {"name": "ADI-14374 (antibody, V domains shown)", "VH": "QVQLVQSGGVVVQPGGSLRLSCAASGFNFDDFTMHWVRQAPGKGLEWVSLITWDGGITYYADSVKGRFTISRDNGKNSLYLRMNSLRTEDTALYYCAKDGDRYSGYAFLDYWGQGTLVTVSS", "VL": "SYELTQPPSVSVAPGKTARLTCGGNNIGSESVHWYQQRPGQAPVLVSYYNGDRPSGIAERISASKSGNTATLTIYRVEAGDEADYYCQVWHSSSDHFVFGTGTQLTVL", "notes": "full-length IgG; also called Ab 42"}}}
{"target": "RSV F on RSV subtype A virus (mKate-RSV A2) (respiratory syncytial virus A2, UniProt P03420 26-574)", "assay": "cell-based or functional assay", "units": {"Neut IC50 subtype A": "µg/mL"}}
{"binder": "B1", "Neut IC50 subtype A": 11}
{"target": "RSV F on RSV subtype B virus (mKate-RSV B 18537) (respiratory syncytial virus B 18537, UniProt P13843 26-574)", "assay": "cell-based or functional assay", "units": {"Neut IC50 subtype B": "µg/mL"}}
{"binder": "B2", "Neut IC50 subtype B": 1.84}
{"binder": "B3", "Neut IC50 subtype B": 21.6}
{"binder": "B4", "Neut IC50 subtype B": 2.13}
{"binder": "B5", "Neut IC50 subtype B": 3.07}
{"binder": "B6", "Neut IC50 subtype B": 22.2}
{"binder": "B7", "Neut IC50 subtype B": 3.38}
{"binder": "B8", "Neut IC50 subtype B": 0.86}
{"target": "T1, RSV prefusion F (preF), subtype B (respiratory syncytial virus subtype B)", "T1 construct": "also called Prefusion subtype B", "assay": "BLI, IgG", "units": {"Kd": "nM"}}
{"binder": "B2", "Kd": 4.07}
{"binder": "B3", "Kd": 6.1}
{"binder": "B4", "Kd": 5.28}
{"binder": "B5", "Kd": 5.5}
{"binder": "B6", "Kd": 5.36}
{"binder": "B7", "Kd": 10.7}
{"binder": "B8", "Kd": 2.09}
{"target": "T2, RSV postfusion F (postF), subtype A (respiratory syncytial virus subtype A, UniProt P03420 26-513)", "T2 construct": "also called Postfusion subtype A; F deltaFP", "assay": "BLI"}
{"binder": "B1", "binding result": "no binding"}
{"binder": "B2", "binding result": "no binding"}
{"binder": "B4", "binding result": "no binding"}
{"binder": "B5", "binding result": "no binding"}
{"binder": "B6", "binding result": "no binding"}
{"binder": "B7", "binding result": "no binding"}
